Experimental data as given in IntAct's records for PubMed 15205472.

B1: Nuclear receptor subfamily 5 group A member 2 (Homo sapiens), O00482-2 (parent)
chain: MSSNSDTGDLQESLKHGLTPIVSQFKMVNYSYDEDLEELCPVCGDKVSGYHYGLLTCESCKGFFKRTVQNNKRYTCIENQNCQIDKTQRKRCPYCRFQKCLSVGMKLEAVRADRMRGGRNKFGPMYKRDRALKQQKKALIRANGLKLEAMSQVIQAMPSDLTISSAIQNIHSASKGLPLNHAALPPTDYDRSPFVTSPISMTMPPHGSLQGYQTYGHFPSRAIKSEYPDPYTSSPESIMGYSYMDSYQTSSPASIPHLILELLKCEPDEPQVQAKIMAYLQQEQANRSKHEKLSTFGLMCKMADQTLFSIVEWARSSIFFRELKVDDQMKLLQNCWSELLILDHIYRQVVHGKEGSIFLVTGQQVDYSIIASQAGATLNNLMSHAQELVAKLRSLQFDQREFVCLKFLVLFSLDVKNLENFQLVEGVQEQVNAALLDYTMCNYPQQTEKFGQLLLRLPEIRAISMQAEEYLYYKHLNGDVPYNNLLIEMLHAKRA
B2: Prospero homeobox protein 1 (Homo sapiens), Q92786 (parent)
chain: MPDHDSTALLSRQTKRRRVDIGVKRTVGTASAFFAKARATFFSAMNPQGSEQDVEYSVVQHADGEKSNVLRKLLKRANSYEDAMMPFPGATIISQLLKNNMNKNGGTEPSFQASGLSSTGSEVHQEDICSNSSRDSPPECLSPFGRPTMSQFDMDRLCDEHLRAKRARVENIIRGMSHSPSVALRGNENEREMAPQSVSPRESYRENKRKQKLPQQQQQSFQQLVSARKEQKREERRQLKQQLEDMQKQLRQLQEKFYQIYDSTDSENDEDGNLSEDSMRSEILDARAQDSVGRSDNEMCELDPGQFIDRARALIREQEMAENKPKREGNNKERDHGPNSLQPEGKHLAETLKQELNTAMSQVVDTVVKVFSAKPSRQVPQVFPPLQIPQARFAVNGENHNFHTANQRLQCFGDVIIPNPLDTFGNVQMASSTDQTEALPLVVRKNSSDQSASGPAAGGHHQPLHQSPLSATTGFTTSTFRHPFPLPLMAYPFQSPLGAPSGSFSGKDRASPESLDLTRDTTSLRTKMSSHHLSHHPCSPAHPPSTAEGLSLSLIKSECGDLQDMSEISPYSGSAMQEGLSPNHLKKAKLMFFYTRYPSSNMLKTYFSDVKFNRCITSQLIKWFSNFREFYYIQMEKYARQAINDGVTSTEELSITRDCELYRALNMHYNKANDFEVPERFLEVAQITLREFFNAIIAGKDVDPSWKKAIYKVICKLDSEVPEIFKSPNCLQELLHE

Variants of: B1
Settings: with prox1_human PROX1, Q92786
With K301A;Q305A;F308A the “effect of a mutation on the interaction” value was “decreasing interaction”. Q273A;Q281A;Q282A was tested, and the “effect of a mutation on the interaction” value was “disrupting interaction”. D326A;D327A;M329A was tested, and the “effect of a mutation on the interaction” value was “decreasing interaction”. L453A;L454A was tested, and the “effect of a mutation on the interaction” value was “disrupting interaction”.

Variants of: B2
Settings: with NR5A2, O00482-2
In the case of L70A;L73A, the “effect of a mutation on the interaction” value is reported as “disrupting interaction”.
